Reference: the nanobody polyreactivity screen of Harvey et al. (2022)

Assay: yeast display, Sf9 membrane polyspecificity reagent, FACS + sequencing; frameworks hold sequencing errors
Outline: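 Galactose-induced (36–48 hours) yeast carrying a synthetic nanobody display library were exposed to 10% biotinylated, detergent-solubilized Sf9 membrane reagent at 4 °C for 1 hour. FACS followed streptavidin microbead enrichment, using low and high (top ~1%) gates for expression (anti-HA) and reagent binding (streptavidin). Colony PCR, MiSeq 2 × 250 sequencing and CDR-length filtering followed. Labels for polyreactivity reflect the gate of origin.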

Row | Sequence | polyreactivity (PSR sort gate)
1 | QVQLVESGGGLVQAGGSLRLSCDASGFTLEKNAMGWYRQAPGKERELVADISSTDSTNYADSVKGRFTISRDNAKNTVYIQMNSLKPEDTAVYYCGRYDGPGTEEFDYWGQGTQVTVSS | low polyreactivity
2 | QVQLVESGGGLVQAGGSLRLSCDASGIFVGYTLGWYRQAPRKERELVAAIRWTDGSTYYADSVKGRFTISRDNAKNTVYLQRNSLNPEDTAVYDCGADSNDPARYYYGDEFEDEYWGQGTQVTVSS | low polyreactivity
3 | QVQLVESGGGLVQAGGSLRLSCDASGIIFGFNTMGWYRQAPVKERELVAAINGSDGSTYADSVKGRFTISRDNAKNTVYLQMISVKPEDTAVYYCAKALDYRYRRYDYWGQGTQVTVSS | low polyreactivity
4 | QVQLVESGGGLVQAGGSLRLSCDASGIIFVKYAMGWYRQAPGKERELVAAITSGGSTYYADSVKGRFTISRDNAKNTVYLQMNSLKPEDTAVYYCNADTWFLYFFTINGYWGQGTQVTVSS | high polyreactivity
5 | QVQLVESGGGLVQAGGSLRLSCDASGITFWGYVMGWYRQAPGKERELVAAISSSGGRTYYADSVKGRFTISLDNAKNTVYLQMNSLKPEDTAVYYCAARFLYANRYSVDYDYCGQGTQVTVSS | high polyreactivity
6 | QVQLVESGGGLVQAGGSLRLSCDASGITFWNALGWYRQAPGKERELVAAITSSGGSTYYADSVKGRFTISRDNAKNTVDLQMNSLKPEDTAVYYCAADYGRTRYDMDYWGQGTQVTVSS | low polyreactivity
7 | QVQLVESGGGLVQAGGSLRLSCDASGITITEYARGWYRQAPGTERELVAVISSVGTMYYADSVKGRFTISRDNEKNTVYLQMKSLKPEDTAVYYCAADYTDDGEYPYWSGSDYWGQGTQVTVSS | low polyreactivity
8 | QVQLVESGGGLVQAGGSLRLSCDASGLTFAYYAMGWYRQAPGKERELVAAISSSGGRTYYADSVKGRFTISRDNAKNTVYLQMNSLKPEDTAVYYCAKSRYSTQTDYNYWGQGTQVTVSS | high polyreactivity
9 | QVQLVESGGGLVQAGGSLRLSCDASGLTFDYNAMGWYRQAPGKERELVAAITWSGGSTYYADSVKGRFTISRDNAKNTVYLQMNSLKPEDTAVYYCARDGVGRGYGYFTPLGYDYWGQGTQVTVSS | low polyreactivity
10 | QVQLVESGGGLVQAGGSLRLSCDASGLTFGWNAMGWSRQAPGKERELVAALSYNGVSTHYADTVKGRFTISRDNAKNTVYLQMNSLKPEDTAVYYCAARALTWPYGGTAPRLYNYWGQGTQVTVSS | low polyreactivity
11 | QVQLVESGGGLVQAGGSLRLSCDASGLTFHRYAMGWYRQAPGKERELVAAINYSGGRTYYADSVKGRFTISRDNAKNTFYLQMNSLKPEDTAVYYCAAPRASGYFWGQGTQLTVSS | high polyreactivity
12 | QVQLVESGGGLVQAGGSLRLSCDASGRIFGSYAMGWYRQAPGKERELVAAITYSGGRTYYADSVKGRFTISRDNAKNTVYLQMNSLKPEDTAVYYCNALGRLTSQYDYWGQGTQVTVSS | high polyreactivity
13 | QVQLVESGGGLVQAGGSLRLSCDASGRIFRKYAMGWYRQAPGKERELVAGITWRGTSTYYADSVKGRFTISRDNAKNTVYLPMNSLKPEDTAVYYCAAEWKGYYVHDYWGQGTQVTVSS | high polyreactivity
14 | QVQLVESGGGLVQAGGSLRLSCDASGRIFSYYAMGWYRPAPGKERELVAAITRSGGNTYYADSVKGRFTISRDNAKNTVYLLMNSLKPEDTAVYYCAARLGRPFYGPNRYDYWGQGTQVTVSS | high polyreactivity
15 | QVQLVESGGGLVQAGGSLRLSCDASGRIFTTYAMGWYRQAPGKERELVARITWSAGRTYYADSVKGRFTISRDNAKNTVYLQMNSLKPEDTAVYYCAADGGISAGANSGYDYWGQGTQVTVSS | high polyreactivity
16 | QVQLVESGGGLVQAGGSLRLSCDASGRIFVYYAMGWYRQAPGKERELVAAINSGGTTKYADSVKGRFTISRDNAKNTVYLQMNSLKPEDTAVYYCAAEPLTPSRDRVPYEYYYWGQGTQVTVSS | high polyreactivity
